Test [1] addresses Xpo1 (full-length, 1–1071) (S. cerevisiae) (UniProt P30822).
Test [2] shares this target. This is another data set of the same source.
Test [3] has the same target. The source holds these as a separate data set.

The record followed here is article PMC4484809.

With “Ded1 (full-length, 1–604) (from UniProt P06634 1-604) (natural protein)”, the Michaelis-Menten analysis of Ded1 ATPase (500 nM) against whole cell yeast RNA, with ~10 fold molar excess of Xpo1 and Ran[GTP]Q71L; fold change of the apparent KM for RNA in test [1] came to 50 fold. In test [2], this substance registered an RNA duplex unwinding (helicase) by Ded1 (50 nM) with Xpo1 (550 nM) and Ran[GTP]Q71L (650 nM); fold inhibition of k unwind of 5 fold. This substance registered an RNA-stimulated ATPase activity of Ded1 (500 nM, 320 μg/mL whole-cell yeast RNA) with Xpo1 0.55–11 μM and Ran[GTP]Q71L 0.65–13 μM added together; fold reduction in test [3] of 2 fold.

Regarding “Ded1_(I13A) (full-length Ded1, I13A) (from UniProt P06634 1-604) (natural protein)”, the RNA duplex unwinding (helicase) by Ded1 I13A (50 nM) with Xpo1 (550 nM) and Ran[GTP]Q71L (650 nM); fold inhibition of k unwind in test [2] was < 2 fold.
